# Source: patent publication US20190270817A1
# Key:
# IL-21R-Fc = IL-21R-Fc (UniProt Q9HBE5); test: ForteBio Octet
# cynoPD1(1-167)-Flag-His = cynoPD1(1-167)-Flag-His (UniProt Q15116); test: Octet
# IL-21R on Hut78 T cells = IL-21R on Hut78 T cells (UniProt Q9HBE5); test: cell-based or functional assay
# [1] = biological target: human IL-21R-FLAG-His (monovalent) (human) (UniProt Q9HBE5); test: Octet, immobilized monovalent IL-21R-his
# [2] = biological target: cynomolgus monkey IL-21R-FLAG-His (monovalent) (cynomolgus monkey) (UniProt G7Q0S8); test: Octet, immobilized monovalent IL-21R-his
# [3] = biological target: cynomolgus monkey PD-1(1-167)-FLAG-His (cynomolgus monkey); test: Octet, fusion amine-coupled to tips
# Sequence of cynomolgus monkey PD-1(1-167)-FLAG-His (cynomolgus monkey) (Q15116 other isoform, or with tags, fused parts or gaps): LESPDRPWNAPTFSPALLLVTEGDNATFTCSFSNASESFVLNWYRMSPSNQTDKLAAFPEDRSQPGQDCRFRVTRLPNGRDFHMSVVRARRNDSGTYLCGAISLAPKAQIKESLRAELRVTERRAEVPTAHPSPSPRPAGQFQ
# [4] = biological target: human PD-1(1-170)-FLAG-His (human) (UniProt Q15116); test: Octet, fusion amine-coupled to tips
# Sequence of human PD-1(1-170)-FLAG-His (human) (Q15116 21-170 limits assumed): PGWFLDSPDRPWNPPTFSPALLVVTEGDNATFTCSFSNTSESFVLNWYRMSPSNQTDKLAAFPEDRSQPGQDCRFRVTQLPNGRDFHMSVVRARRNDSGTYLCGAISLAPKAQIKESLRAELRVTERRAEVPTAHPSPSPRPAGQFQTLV
# [5] = biological target: human PD-1 on cells (human) (UniProt Q15116); test: cell-based or functional assay
# Sequence of human PD-1 on cells (human) (Q15116 25-288 limits assumed): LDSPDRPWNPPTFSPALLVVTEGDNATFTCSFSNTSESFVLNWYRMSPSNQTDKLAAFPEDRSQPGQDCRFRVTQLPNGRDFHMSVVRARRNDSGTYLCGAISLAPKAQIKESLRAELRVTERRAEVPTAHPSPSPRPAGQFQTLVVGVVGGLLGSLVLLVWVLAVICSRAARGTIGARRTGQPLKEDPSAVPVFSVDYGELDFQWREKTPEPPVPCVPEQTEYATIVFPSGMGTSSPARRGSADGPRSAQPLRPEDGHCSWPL
# [6] = biological target: human IL-21R, recombinant soluble (FLAG-His or Fc, not stated which) (human) (UniProt Q9HBE5); test: not stated in the table (Octet per Example 11)
# Sequence of human IL-21R, recombinant soluble (FLAG-His or Fc, not stated which) (human) (Q9HBE5 20-232 limits assumed): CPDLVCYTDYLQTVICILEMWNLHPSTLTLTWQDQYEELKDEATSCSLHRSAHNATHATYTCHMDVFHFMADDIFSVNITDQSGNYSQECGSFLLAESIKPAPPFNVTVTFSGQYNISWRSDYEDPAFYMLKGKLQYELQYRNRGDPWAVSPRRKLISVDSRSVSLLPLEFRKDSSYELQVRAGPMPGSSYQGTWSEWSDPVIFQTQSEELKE
# [7] = biological target: human PD-1(1-170)-FLAG-His (human) (UniProt Q15116); test: not stated in the table (Octet per Example 11)
# Sequence of IL-21R on Hut78 T cells (Q9HBE5 20-538 limits assumed): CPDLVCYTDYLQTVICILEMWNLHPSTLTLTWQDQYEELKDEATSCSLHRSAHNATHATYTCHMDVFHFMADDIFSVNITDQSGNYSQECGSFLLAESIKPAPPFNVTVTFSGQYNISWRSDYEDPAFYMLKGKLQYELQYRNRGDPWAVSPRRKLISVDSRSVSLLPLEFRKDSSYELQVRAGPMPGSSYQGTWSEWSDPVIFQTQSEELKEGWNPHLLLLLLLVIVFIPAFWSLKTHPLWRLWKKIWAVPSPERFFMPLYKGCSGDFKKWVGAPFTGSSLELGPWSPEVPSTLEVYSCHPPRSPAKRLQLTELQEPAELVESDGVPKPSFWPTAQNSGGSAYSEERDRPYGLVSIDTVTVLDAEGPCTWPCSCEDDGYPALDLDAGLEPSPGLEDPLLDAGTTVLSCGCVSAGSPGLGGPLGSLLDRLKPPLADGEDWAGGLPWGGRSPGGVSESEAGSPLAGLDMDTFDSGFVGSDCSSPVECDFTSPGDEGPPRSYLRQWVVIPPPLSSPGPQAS
# Sequence of human IL-21R-FLAG-His (monovalent) (human) (Q9HBE5 20-232 limits assumed): as the sequence (Q9HBE5 20-232 limits assumed) above
# Sequence of IL-21R-Fc (Q9HBE5 20-232 limits assumed): as above
# Sequence of cynoPD1(1-167)-Flag-His (Q15116 other isoform, or with tags, fused parts or gaps): as the sequence (Q15116 other isoform, or with tags, fused parts or gaps) above
Kd (IL-21R-Fc) [nM],Substance,other results
0.38,PD-1 mAb x IL-21 Q12N (Mutant 39) (from UniProt Q9HBE4 30-162),
0.9,PD-1 mAb x IL-21 R65P (Mutant 50) (from UniProt Q9HBE4 30-162),
40,PD-1 mAb x IL-21 R9G (Mutant 24) (from UniProt Q9HBE4 30-162),
> 100,PD-1 mAb x IL-21 R9D (Mutant 22) (from UniProt Q9HBE4 30-162),
0.677,PD-1 mAb x IL-21 I66D (Mutant 51) (from UniProt Q9HBE4 30-162),
11,PD-1 mAb x IL-21 D15N (Mutant C10) (from UniProt Q9HBE4 30-162),
6.6,PD-1 mAb x IL-21 D15S (Mutant C12) (from UniProt Q9HBE4 30-162),
0.25,PD-1 mAb x IL-21 K72G (Mutant 61) (from UniProt Q9HBE4 30-162),
,Nivo huIgG1 mAb,Kd (cynoPD1(1-167)-Flag-His): 3.5 nM
0.17,PD-1 mAb x IL-21 Q19D (Mutant 46) (from UniProt Q9HBE4 30-162),
0.4,PD-1 mAb x IL-21 R76P (Mutant 87) (from UniProt Q9HBE4 30-162),
0.167,PD-1 mAb x IL-21 K73S (Mutant 72) (from UniProt Q9HBE4 30-162),
0.518,PD-1 mAb x IL-21 S70G (Mutant 58) (from UniProt Q9HBE4 30-162),
0.163,PD-1 mAb x IL-21 K75G (Mutant 75) (from UniProt Q9HBE4 30-162),
1.23,PD-1 mAb x IL-21 P78D (Mutant 96) (from UniProt Q9HBE4 30-162),
0.253,PD-1 mAb x IL-21 K73G (Mutant 66) (from UniProt Q9HBE4 30-162),
,anti-PD-1 mAb x IL-21 R9E:R76A homodimer fusion,"pSTAT3 EC50, Hut78 PD-1+ T cells (n1) (IL-21R on Hut78 T cells): 16.6 nM; pSTAT3 EC50, Hut78 PD-1- T cells (n1) (IL-21R on Hut78 T cells): > 1 µM; pSTAT3 EC50, Hut78 PD-1- T cells (n2) (IL-21R on Hut78 T cells): > 1 µM; Kd [1]: > 300 nM; Kd [2]: > 300 nM; Kd [3]: 5.9 nM; Kd [4]: 8.9 nM"
12,PD-1 mAb x IL-21 R76D (Mutant 78) (from UniProt Q9HBE4 30-162),
0.237,PD-1 mAb x IL-21 S70Y (Mutant 101) (from UniProt Q9HBE4 30-162),

Kd (IL-21R-Fc) [nM],Substance,other results
0.435,PD-1 mAb x IL-21 K73D (Mutant 64) (from UniProt Q9HBE4 30-162),
0.0525,PD-1 mAb x IL-21 K73A (Mutant 63) (from UniProt Q9HBE4 30-162),
,anti-PD-1 mAb x IL-21 R5Q:R76E homodimer fusion,Kd [1]: > 300 nM; Kd [2]: > 300 nM
7.11,PD-1 mAb x IL-21 I66P (Mutant 53) (from UniProt Q9HBE4 30-162),
,PD-1 mAb x IL-21 R76A (Mutant 77),Kd [1]: > 10 nM; Kd [2]: > 10 nM
,anti-TIGIT mAb fused to an IL-21 (R5Q:R76E) mutein (dimer),"pSTAT3 EC50, Hut78/TIGIT (IL-21R on Hut78 T cells): 1390 pM"
8.1,PD-1 mAb x IL-21 S113K (Mutant C18) (from UniProt Q9HBE4 30-162),
0.265,PD-1 mAb x IL-21 R76Y (Mutant 92) (from UniProt Q9HBE4 30-162),
11,PD-1 mAb x IL-21 L13D (Mutant 43) (from UniProt Q9HBE4 30-162),
0.411,PD-1 mAb x IL-21 R11D (Mutant c1) (from UniProt Q9HBE4 30-162),
15.3,PD-1 mAb x IL-21 R76N (Mutant 86) (from UniProt Q9HBE4 30-162),
4.55,PD-1 mAb x IL-21 I66G (Mutant 52) (from UniProt Q9HBE4 30-162),
0.265,PD-1 mAb x IL-21 S80G (Mutant 98) (from UniProt Q9HBE4 30-162),
0.6,PD-1 mAb x IL-21 R76M (Mutant 85) (from UniProt Q9HBE4 30-162),
,anti-PD-1 mAb fused to an IL-21 (R5Q:R76E) mutein (monomer),"pSTAT3 EC50, Hut78/PD-1 (IL-21R on Hut78 T cells): 341 pM"
0.237,PD-1 mAb x IL-21 R5A (Mutant 100) (from UniProt Q9HBE4 30-162),
0.031,PD-1 mAb x IL-21 Q12E (Mutant 38) (from UniProt Q9HBE4 30-162),
7.95,PD-1 mAb x IL-21 Q116E (Mutant C21) (from UniProt Q9HBE4 30-162),
10,PD-1 mAb x IL-21 S70P (Mutant 59) (from UniProt Q9HBE4 30-162),

Kd (IL-21R-Fc) [nM],Substance,other results
0.42,PD-1 mAb x IL-21 Q12D (Mutant 37) (from UniProt Q9HBE4 30-162),
0.658,PD-1 mAb x IL-21 K77G (Mutant 94) (from UniProt Q9HBE4 30-162),
0.172,PD-1 mAb x IL-21 K73I (Mutant 68) (from UniProt Q9HBE4 30-162),
,PD-1 mAb x IL-21 R76E (Mutant 79),Kd [1]: > 10 nM; Kd [2]: > 10 nM
< 0.26,PD-1 mAb x IL-21 Q12T (Mutant 41) (from UniProt Q9HBE4 30-162),
4,PD-1 mAb x IL-21 I8S (Mutant 20) (from UniProt Q9HBE4 30-162),
6.84,PD-1 mAb x IL-21 R9A (Mutant 21) (from UniProt Q9HBE4 30-162),
0.0395,PD-1 mAb x IL-21 V69D (Mutant 54) (from UniProt Q9HBE4 30-162),
0.163,PD-1 mAb x IL-21 D15M (Mutant c9) (from UniProt Q9HBE4 30-162),
0.63,PD-1 mAb x IL-21 R9Y (Mutant 35) (from UniProt Q9HBE4 30-162),
0.249,PD-1 mAb x IL-21 D15E (Mutant c7) (from UniProt Q9HBE4 30-162),
0.094,PD-1 mAb x IL-21 I16D (Mutant 44) (from UniProt Q9HBE4 30-162),
,"PD1 mAb x R9E:R76A monomer (chimera, mouse IgG1 constant region, C-terminal human IL-21 R9E:R76A)",PD-1 reporter Interpolated EC50 [5]: 1.61 nM; Hut78 PD1 (+) Interpolated EC50 (IL-21R on Hut78 T cells): 1.97 nM; Hut78 PD-1 (-) Interpolated EC50 (IL-21R on Hut78 T cells): > 1000 nM; Kd [6]: > 300 nM; Kd [7]: 2.6 nM
8.96,PD-1 mAb x IL-21 K72P (Mutant 62) (from UniProt Q9HBE4 30-162),
,anti-PD-1 mAb x IL-21 R5E:R76A homodimer fusion,"pSTAT3 EC50, Hut78 PD-1+ T cells (n1) (IL-21R on Hut78 T cells): 1.98 nM; pSTAT3 EC50, Hut78 PD-1+ T cells (n2) (IL-21R on Hut78 T cells): 1.49 nM; pSTAT3 EC50, Hut78 PD-1- T cells (n1) (IL-21R on Hut78 T cells): > 1 µM; pSTAT3 EC50, Hut78 PD-1- T cells (n2) (IL-21R on Hut78 T cells): > 1 µM; Kd [1]: > 300 nM; Kd [2]: > 300 nM; Kd [3]: 5.9 nM; Kd [4]: 7 nM"
0.235,PD-1 mAb x IL-21 K72D (Mutant 60) (from UniProt Q9HBE4 30-162),
0.439,PD-1 mAb x IL-21 D15A (Mutant c6) (from UniProt Q9HBE4 30-162),
5.47,PD-1 mAb x IL-21 D15V (Mutant C14) (from UniProt Q9HBE4 30-162),
0.166,PD-1 mAb x IL-21 I14S (Mutant c5) (from UniProt Q9HBE4 30-162),
